According to patent publication US20230301998A1 (SANFORD BURNHAM PREBYS MEDICAL DISCOVERY INSTITUTE, published 2023):

How the values were obtained:
Test in all cases: Flag IP of Flag-SHARPIN from WM115 lysate, on-bead tryptic digestion, LC/MS-MS
[1] = molecular target: T1, HSPA8 (human, UniProt P11142 2-646)
T1 construct: endogenous protein co-purified from WM115 lysate
Summary of the method: (§1)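 WM115 cells transfected with Flag-SHARPIN or empty plasmid; lysed in 1% Triton X-100 buffer (50 mM Tris-HCl pH7.4, 150 mM NaCl, 1 mM EDTA). Lysates pre-cleared 1 h at 4° C, immunoprecipitated on FLAG-M2 agarose overnight at 4° C, washed, then digested with trypsin on-bead for mass spectrometry.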

[2] = molecular target: T2, RNF31 (human, UniProt Q96EP0 1-1072)
T2 construct: endogenous protein co-purified from WM115 lysate
T2 sequence (looked up): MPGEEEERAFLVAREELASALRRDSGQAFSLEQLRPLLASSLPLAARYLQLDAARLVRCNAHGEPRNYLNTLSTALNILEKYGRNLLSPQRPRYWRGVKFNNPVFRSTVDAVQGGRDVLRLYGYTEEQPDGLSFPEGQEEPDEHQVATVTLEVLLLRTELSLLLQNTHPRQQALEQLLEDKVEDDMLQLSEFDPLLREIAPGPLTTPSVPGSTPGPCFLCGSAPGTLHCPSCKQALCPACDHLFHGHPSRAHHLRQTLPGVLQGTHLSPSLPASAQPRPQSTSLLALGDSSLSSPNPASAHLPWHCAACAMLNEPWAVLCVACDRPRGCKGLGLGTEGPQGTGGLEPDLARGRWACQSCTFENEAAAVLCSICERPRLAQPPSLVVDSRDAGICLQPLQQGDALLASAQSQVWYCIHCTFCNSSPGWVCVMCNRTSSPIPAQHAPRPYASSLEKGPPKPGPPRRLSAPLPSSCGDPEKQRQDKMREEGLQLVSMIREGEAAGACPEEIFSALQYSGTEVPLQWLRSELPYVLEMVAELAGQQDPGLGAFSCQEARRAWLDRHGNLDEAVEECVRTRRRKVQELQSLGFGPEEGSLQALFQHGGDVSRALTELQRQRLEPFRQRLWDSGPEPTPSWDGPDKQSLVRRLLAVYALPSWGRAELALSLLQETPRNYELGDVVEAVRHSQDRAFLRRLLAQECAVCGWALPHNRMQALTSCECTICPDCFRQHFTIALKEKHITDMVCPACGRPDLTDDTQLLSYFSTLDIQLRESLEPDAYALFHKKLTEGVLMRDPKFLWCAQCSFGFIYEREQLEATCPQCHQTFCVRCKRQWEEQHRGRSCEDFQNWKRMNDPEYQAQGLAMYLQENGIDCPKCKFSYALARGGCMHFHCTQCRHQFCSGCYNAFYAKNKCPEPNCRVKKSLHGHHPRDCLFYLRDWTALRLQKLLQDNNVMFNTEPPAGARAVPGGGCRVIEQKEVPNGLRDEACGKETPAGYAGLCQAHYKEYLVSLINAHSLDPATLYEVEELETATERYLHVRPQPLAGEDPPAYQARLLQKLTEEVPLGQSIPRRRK
Summary of the method: as §1

[3] = molecular target: T3, FLNA (human, UniProt P21333 2-2647, limits assumed)
T3 construct: endogenous protein co-purified from WM115 lysate
T3 sequence (P21333 2-2647 limits assumed): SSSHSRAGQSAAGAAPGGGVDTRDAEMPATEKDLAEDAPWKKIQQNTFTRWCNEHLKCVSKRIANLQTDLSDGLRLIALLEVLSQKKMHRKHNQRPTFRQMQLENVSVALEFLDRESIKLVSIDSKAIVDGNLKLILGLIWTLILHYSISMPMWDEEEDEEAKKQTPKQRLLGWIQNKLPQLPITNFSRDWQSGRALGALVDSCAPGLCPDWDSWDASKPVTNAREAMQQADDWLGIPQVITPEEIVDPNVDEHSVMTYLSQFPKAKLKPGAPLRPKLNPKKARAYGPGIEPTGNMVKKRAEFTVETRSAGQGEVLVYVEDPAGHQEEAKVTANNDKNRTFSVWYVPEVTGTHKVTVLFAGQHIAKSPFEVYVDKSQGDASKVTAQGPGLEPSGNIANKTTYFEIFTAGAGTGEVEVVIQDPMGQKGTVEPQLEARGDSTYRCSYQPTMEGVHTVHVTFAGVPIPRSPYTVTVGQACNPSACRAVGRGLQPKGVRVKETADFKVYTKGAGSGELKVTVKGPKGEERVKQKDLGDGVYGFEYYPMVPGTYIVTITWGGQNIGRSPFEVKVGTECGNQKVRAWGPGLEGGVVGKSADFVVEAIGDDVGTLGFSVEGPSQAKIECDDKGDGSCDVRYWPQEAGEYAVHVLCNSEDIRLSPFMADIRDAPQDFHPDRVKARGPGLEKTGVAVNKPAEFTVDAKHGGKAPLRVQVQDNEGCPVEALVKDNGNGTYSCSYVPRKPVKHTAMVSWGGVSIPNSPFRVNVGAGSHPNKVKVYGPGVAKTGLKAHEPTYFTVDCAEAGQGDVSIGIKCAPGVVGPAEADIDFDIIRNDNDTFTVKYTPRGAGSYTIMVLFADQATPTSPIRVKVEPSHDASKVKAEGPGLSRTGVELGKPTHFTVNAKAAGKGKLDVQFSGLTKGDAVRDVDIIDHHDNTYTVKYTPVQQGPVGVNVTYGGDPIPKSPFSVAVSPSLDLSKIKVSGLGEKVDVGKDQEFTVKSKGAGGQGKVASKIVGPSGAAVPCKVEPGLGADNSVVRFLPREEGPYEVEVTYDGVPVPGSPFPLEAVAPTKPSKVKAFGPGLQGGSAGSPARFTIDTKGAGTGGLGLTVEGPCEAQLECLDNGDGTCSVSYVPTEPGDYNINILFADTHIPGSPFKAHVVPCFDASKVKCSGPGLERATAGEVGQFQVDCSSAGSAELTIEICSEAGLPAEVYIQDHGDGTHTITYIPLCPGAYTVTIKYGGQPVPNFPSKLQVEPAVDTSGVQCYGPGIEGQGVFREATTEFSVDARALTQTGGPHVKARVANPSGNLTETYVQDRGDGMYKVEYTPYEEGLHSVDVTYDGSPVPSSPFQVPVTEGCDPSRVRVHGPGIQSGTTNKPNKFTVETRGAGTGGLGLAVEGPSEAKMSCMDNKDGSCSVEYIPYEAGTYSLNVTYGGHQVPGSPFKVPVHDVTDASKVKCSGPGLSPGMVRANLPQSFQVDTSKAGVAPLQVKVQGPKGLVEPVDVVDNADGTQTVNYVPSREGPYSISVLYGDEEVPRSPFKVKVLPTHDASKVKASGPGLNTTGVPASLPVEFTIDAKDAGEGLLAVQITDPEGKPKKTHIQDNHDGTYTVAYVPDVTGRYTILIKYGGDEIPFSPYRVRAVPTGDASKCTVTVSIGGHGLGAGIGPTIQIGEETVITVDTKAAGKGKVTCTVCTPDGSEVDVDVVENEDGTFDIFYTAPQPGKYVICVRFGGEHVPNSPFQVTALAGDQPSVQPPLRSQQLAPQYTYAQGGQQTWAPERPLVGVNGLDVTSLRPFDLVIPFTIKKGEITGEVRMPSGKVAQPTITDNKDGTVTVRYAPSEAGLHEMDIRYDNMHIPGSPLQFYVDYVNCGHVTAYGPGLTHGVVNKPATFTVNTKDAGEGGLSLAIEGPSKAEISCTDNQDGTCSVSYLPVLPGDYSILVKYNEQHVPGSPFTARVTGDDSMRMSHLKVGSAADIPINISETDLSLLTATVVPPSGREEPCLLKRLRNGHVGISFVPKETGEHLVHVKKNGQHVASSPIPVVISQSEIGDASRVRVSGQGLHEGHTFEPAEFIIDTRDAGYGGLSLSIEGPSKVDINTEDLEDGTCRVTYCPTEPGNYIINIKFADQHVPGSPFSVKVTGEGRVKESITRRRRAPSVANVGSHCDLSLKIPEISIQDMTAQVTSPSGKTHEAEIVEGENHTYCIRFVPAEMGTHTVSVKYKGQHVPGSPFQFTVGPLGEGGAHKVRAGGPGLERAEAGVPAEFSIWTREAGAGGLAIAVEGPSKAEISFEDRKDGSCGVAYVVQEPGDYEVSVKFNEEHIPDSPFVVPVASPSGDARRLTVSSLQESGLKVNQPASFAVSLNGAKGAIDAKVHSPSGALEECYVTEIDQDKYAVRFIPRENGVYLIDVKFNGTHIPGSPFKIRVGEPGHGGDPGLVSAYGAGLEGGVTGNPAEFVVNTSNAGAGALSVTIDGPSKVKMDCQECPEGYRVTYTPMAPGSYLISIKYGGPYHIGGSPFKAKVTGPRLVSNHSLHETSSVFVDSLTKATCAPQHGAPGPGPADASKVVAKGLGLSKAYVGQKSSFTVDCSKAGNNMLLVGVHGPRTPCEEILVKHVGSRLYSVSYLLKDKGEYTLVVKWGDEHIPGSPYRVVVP
Summary of the method: as §1

[4] = molecular target: T4, HNRNPU (human, UniProt Q00839 2-825, limits assumed)
T4 construct: endogenous protein co-purified from WM115 lysate
T4 sequence (Q00839 2-825 limits assumed): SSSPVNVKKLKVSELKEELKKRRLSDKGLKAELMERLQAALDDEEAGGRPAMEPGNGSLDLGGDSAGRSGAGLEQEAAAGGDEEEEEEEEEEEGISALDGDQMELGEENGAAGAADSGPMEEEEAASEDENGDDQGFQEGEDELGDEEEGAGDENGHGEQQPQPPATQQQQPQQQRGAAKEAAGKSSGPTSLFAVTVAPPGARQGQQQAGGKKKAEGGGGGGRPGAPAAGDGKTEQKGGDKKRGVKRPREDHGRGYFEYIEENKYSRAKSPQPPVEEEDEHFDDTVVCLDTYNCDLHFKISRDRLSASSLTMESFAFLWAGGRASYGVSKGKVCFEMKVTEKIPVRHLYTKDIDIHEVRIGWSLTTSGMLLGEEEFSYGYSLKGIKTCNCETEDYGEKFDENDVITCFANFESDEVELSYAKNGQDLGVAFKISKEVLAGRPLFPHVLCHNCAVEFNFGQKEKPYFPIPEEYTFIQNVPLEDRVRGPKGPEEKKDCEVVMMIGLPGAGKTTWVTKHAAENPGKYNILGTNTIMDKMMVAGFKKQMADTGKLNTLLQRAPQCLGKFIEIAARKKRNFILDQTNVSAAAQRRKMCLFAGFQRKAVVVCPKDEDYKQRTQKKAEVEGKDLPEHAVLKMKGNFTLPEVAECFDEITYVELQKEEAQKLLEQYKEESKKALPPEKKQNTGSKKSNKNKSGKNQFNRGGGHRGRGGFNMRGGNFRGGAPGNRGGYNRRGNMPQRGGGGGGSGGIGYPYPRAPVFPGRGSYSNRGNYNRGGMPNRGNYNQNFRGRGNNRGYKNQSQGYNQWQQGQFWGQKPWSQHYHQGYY
Summary of the method: as §1

[5] = molecular target: T5, VIM (human, UniProt P08670 2-466)
T5 construct: endogenous protein co-purified from WM115 lysate
T5 sequence (P08670 2-466 limits assumed): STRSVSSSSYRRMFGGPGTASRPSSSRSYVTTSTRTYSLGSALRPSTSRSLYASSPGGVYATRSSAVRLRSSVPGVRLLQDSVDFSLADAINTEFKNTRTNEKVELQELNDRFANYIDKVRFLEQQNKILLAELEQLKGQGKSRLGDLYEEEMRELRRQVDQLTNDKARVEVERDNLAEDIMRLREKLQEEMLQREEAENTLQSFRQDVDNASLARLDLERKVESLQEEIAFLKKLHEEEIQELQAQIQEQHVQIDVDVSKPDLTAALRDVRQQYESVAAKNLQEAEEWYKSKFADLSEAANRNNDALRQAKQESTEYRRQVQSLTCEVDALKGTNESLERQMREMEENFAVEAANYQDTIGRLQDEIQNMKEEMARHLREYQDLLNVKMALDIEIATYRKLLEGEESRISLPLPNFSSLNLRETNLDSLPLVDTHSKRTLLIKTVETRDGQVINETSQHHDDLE
Summary of the method: as §1

[6] = molecular target: T6, SLC25A13 (human, UniProt Q9UJS0 2-675)
T6 construct: endogenous protein co-purified from WM115 lysate
T6 sequence (looked up): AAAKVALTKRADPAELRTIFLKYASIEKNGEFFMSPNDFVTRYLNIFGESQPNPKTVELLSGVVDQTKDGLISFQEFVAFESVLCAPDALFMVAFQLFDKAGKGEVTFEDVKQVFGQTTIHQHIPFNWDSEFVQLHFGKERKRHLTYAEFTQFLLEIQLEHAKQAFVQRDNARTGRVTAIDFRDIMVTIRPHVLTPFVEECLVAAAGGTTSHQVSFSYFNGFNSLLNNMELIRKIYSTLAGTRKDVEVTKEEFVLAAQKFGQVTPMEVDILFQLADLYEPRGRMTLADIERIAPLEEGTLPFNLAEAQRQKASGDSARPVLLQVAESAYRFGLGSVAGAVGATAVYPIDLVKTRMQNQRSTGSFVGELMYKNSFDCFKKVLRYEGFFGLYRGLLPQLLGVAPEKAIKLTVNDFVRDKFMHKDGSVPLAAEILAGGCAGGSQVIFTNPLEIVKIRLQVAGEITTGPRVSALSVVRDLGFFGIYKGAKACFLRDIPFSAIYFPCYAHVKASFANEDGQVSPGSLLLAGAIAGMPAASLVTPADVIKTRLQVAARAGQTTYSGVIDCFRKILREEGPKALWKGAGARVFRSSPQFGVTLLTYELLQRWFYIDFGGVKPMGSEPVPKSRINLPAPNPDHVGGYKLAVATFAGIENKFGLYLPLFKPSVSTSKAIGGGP
Summary of the method: as §1

[7] = molecular target: T7, PFKFB3 (human, UniProt Q16875 1-520, limits assumed)
T7 construct: endogenous protein co-purified from WM115 lysate
Summary of the method: as §1

[8] = molecular target: T8, PNKP (human, UniProt Q96T60 1-521)
T8 construct: endogenous protein co-purified from WM115 lysate
Summary of the method: as §1

[9] = molecular target: T9, PRMT5 (endogenous, WM115 cells) (human, UniProt O14744 2-637)
T9 construct: endogenous protein co-purified from WM115 lysate; also called Protein arginine methyltransferase 5
Summary of the method: as §1

[10] = molecular target: T10, CLTC (human, UniProt Q00610 2-1675)
T10 construct: endogenous protein co-purified from WM115 lysate
Summary of the method: as §1

Measured: binding result

T1 sequence (P11142 2-646 limits assumed): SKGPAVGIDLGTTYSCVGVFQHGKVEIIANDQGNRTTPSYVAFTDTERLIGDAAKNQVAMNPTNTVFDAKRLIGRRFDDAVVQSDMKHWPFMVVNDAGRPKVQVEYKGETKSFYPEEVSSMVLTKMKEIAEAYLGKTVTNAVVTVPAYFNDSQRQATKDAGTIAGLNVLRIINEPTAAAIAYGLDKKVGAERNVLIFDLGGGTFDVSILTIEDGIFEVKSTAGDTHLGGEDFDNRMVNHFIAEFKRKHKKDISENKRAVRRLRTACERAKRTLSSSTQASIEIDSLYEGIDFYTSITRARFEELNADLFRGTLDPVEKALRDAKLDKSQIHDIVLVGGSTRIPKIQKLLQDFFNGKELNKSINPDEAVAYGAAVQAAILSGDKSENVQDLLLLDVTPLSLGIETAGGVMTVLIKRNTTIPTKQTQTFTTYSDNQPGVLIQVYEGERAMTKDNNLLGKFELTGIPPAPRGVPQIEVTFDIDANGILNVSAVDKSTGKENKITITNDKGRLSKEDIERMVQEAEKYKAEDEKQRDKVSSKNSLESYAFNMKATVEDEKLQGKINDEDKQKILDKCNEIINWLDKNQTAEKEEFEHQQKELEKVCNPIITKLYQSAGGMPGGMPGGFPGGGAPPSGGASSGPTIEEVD

B1: Flag-tagged SHARPIN (other, human, UniProt Q9H0F6 1-387, looked up)
chain: MAPPAGGAAAAASDLGSAAVLLAVHAAVRPLGAGPDAEAQLRRLQLSADPERPGRFRLELLGAGPGAVNLEWPLESVSYTIRGPTQHELQPPPGGPGTLSLHFLNPQEAQRWAVLVRGATVEGQNGSKSNSPPALGPEACPVSLPSPPEASTLKGPPPEADLPRSPGNLTEREELAGSLARAIAGGDEKGAAQVAAVLAQHRVALSVQLQEACFPPGPIRLQVTLEDAASAASAASSAHVALQVHPHCTVAALQEQVFSELGFPPAVQRWVIGRCLCVPERSLASYGVRQDGDPAFLYLLSAPREAPATGPSPQHPQKMDGELGRLFPPSLGLPPGPQPAASSLPSPLQPSWSCPSCTFINAPDRPGCEMCSTQRPCTWDPLAAAST
notes: also called Flag-SHARPIN; not shown: FLAG tag
binds: all assays above
